Source: a protein production outcome set (Wang et al. 2014)

Assay: label from the status in PepcDB records
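Also: failed if final PepcDB status was selected cloned or expressed and not failed if soluble or beyond.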

Sequence | protein production
MGTYRKRFNEKARSGHMAKLKELKRIRNKQFTRQDENDERVENPDSAPAESSTTEPNANAEILEPLTEEEKKMKKRKLQELFTPKESKVSRLKKKRLDKFIEHQLKREERKTIIGKLQDYKIDTSLLTSSKRLGEGRQTKKEEFKEALSLERQGRGNEQTNEILYEEYEPKVWDEYGEGGSSEDDDGEDDFEASFGSMPKPTDNEEKKSSGFIDHRPAKFGGSGLSFGFSNIKVINKESKTPKKKYNWRQRVEMEELKKHGKEDEMDFDTTSEDDDEEEDQEEEDKMHPSENPLEEVESADSETGSEKFDQNDVANEFKDWANQEIKKLEGRDQELVTPTLNIDYKPIIRKEDLDDGLQEAYVPINENSTRKAFYVEVSRSDEIQKARIQLPVFGEEHKIMEAIHHNDVVIICGETGSGKTTQVPQFLYEAGFGAEDSPDYPGMVGITQPRRVAAVSMAERVANELGDHGHKVGYQIRFDSTAKEDTKVKFMTDGVLLREMMHDFKLTKYSSIIIDEAHERNINTDILIGMLSRCVRLRAKLHKENPIEHKKLKLIIMSATLRVSDFSENKTLFPIAPPVLQVDARQFPVSIHFNRRTAFNYTDEAFRKTCKIHQKLPPGAILVFLTGQQEITHMVKRLRKEFPFKKNSKYNKDLETPVSKMGINSKTTDLEAEDIDFSVQVIDQDKFKSAIRYEEDEGNSGNGEDEEDEEEEGFEEVLTEGQTANDPLYVLPLYSLLPTKEQMRVFQKPPQGSRLCIVATNVAETSLTIPGVRYVVDSGRSKERKYNESNGVQSFEVGWVSKASANQRSGRAGRTGPGHCYRLYSSAVFEHDFEQFSKPEILRMPVESIVLQMKSMAIHNIINFPFPTPPDRVALSKAIQLLQYLGALDNKEMITEDGKKMSLFPLSPRFSKMLLVSDEKACLPYIVAIVSALSVGDPFINEFELGINEISRKPNPDENLDDKIREHDESTPGMDPELKKELRSKFYKSRSQFSKLDKFSDVFRLLSVVSAMDYVPKEQKEIFMKKNFLRGKLMEEIVKLRKQLMYIIKSNTSKENIAVVIRNEDLKSDIPSVIQIKLLKQMICAGFVDHVAVRADVLFPDDAKITNRTSIINIPYIPVLATRTPNIEDCFVYIHPTSILNNLGEMPPKYMLYYSLHLGGNNKTRMNTLCDIASTPLANIARKGLLLTYSKPLTGQGLKTVNLSPTERYCYVVPRFGSTVDNDLKIGWDLNPIAVHQKKQKGQWTVIKFITRKGFQTITGEEKEKK | failed
VGSVLEIKDPENLKNLGSLIGEEIAKLHQALNSVNSNNELVKRELYKLVYEWALPNLEKNEHVDQDVVRTMNQIHSDFKKTITSLRKQIIHRDMHLSNVIFKDNEFQGFIDFELLERNVRVFDLCYCCTSILSELHSDEELRGKWQHIISKIFEGYNKQSILTREELQAIWYVMLSIQVIFITYFVQLPDLLKLNEEMFF | failed
EVLPDGVINVLGASNCPSKGIDRGGVIDLDAAVNSIQRAIEQAESVSNCQIMGVTLAISGQHITALNESGVIPLSGTVVRKEDIDAAIHIAHSIKLPDG | failed
MSNVAQYKDGTYIGKAQGKAAEVEVTVSIKEGKIANAEVLKHGDTEAMMLSATDQIVPELIEKQDINKVDAVTGATLSSQGVINAVKQALEQAKVTPLEHHHHHH | not failed
MTLTRDSLLTLEAYAKVRRQEHARVIAHKKRRAVSIGNHLRLLFEDETTIRYQIHEMLHIEKIFDEDGIQAELDAYLPLVPDGSNLKATLQIEYENETQRRAALARLVGIEDRVFLRVDDEAPVYAIADEDLERDTAEKTSAVHFLRFELGDAMKAKLKAGAPLSIGCDHPHYPIQAARIDPDVAASLAGDLD | not failed
MSMLKPSGLKAPTKILKPGSTALKTPTAVVAPVEKTISSEKASSTPSSETQEEFVDDFRVGERVWVNGNKPGFIQFLGETQFAPGQWAGIVLDEPIGKNDGSVAGVRYFQCEPLKGIFTRPSKLTRKV | not failed
MDSITQAALGASIAGAVAGKTLGRSALLTGALLGTLPDLDVVIDYGTAVANFTQHRGFSHSLFILAPLSLLIAWGLWRWKPLISYQRWLALVGLILITHPLLDAFTTYGTQLFWPIGPPVAINSIFIIDPLYTLPLLAGCLAFLYRPPASRTVAAGLLVSSLYLGWTLIAQQIITDRVRPALANAGMEQAALMVQPMPFNTVLWRATAVSAGQRIEVVTGFLDASDELVLERFPRQPELARLVAELPEARRLEWFTGGFLDYQQNGTQITATDIRLGIPGAHPFTFILAETAEDGLQPLASDRLPRPALNRAALPLLWDRMTGQVPVLCLATLSVPNHGNSC | failed
MKAYQNILVAIDGSGADDALIEQVSALAAPLGSRVHLLHVVHSHTIDQERALREQAGEFLERYRAAMQQQGIEAEVLIRSGEPDREILKEIEERRYDLLAMAAHGHRLFSRLLFGSVSRALRNKIDIPLLLVRGEAR | failed
MVRLIFSDIDGTLINSNFKVTPKTRQGIKQIVAQGATFVPISARMPEAITPIMEQIGIDSYIISYNGALIQDMQQKTIASHTMDGQVALQVCSYVSKHYSKIAWNVYRYHEWYSCDKENEWVQKEEEIVGLQSKEMSLMELEKQDRIHKLLLMGEPSLMGELENTLKAQYPHLSIAQSAPYFIEIMAPGIEKGKSAKTLADYLDISLADSIAFGDNYNDLNLLEIVGKGFVMGNAPKDLQERIGNVTQDNDNDGIYYALVEYMEN | failed
MSQQSSSPTKEDNNSSSPVVPNPDSVPPQLSSPALFYSSSSSQGDIYGRNNSQNLSQGEGNIRAAIGSSPLNFPSSSQRQNSDVFQSQGRQGRIRSSASASGRSRYHSDLRSDRALPTSSSSLGRNGQNRVHMRRNDIHTSDLSSPRRIVDFDTRSGVNTLDTSSSSAPPSEASEPLRIIWGTNVSIQECTTNFRNFLMSFKYKFRKILDEREEFINNTTDEELYYIKQLNEMRELGTSNLNLDARNLLAYKQTEDLYHQLLNYPQEVISIMDQTIKDCMVSLIVDNNLDYDLDEIETKFYKVRPYNVGSCKGMRELNPNDIDKLINLKGLVLRSTPVIPDMKVAFFKCNVCDHTMAVEIDRGVIQEPARCERIDCNEPNSMSLIHNRCSFADKQVIKLQETPDFVPDGQTPHSISLCVYDELVDSCRAGDRIEVTGTFRSIPIRANSRQRVLKSLYKTYVDVVHVKKVSDKRLDVDTSTIEQELMQNKVDHNEVEEVRQITDQDLAKIREVAAREDLYSLLARSIAPSIYELEDVKKGILLQLFGGTNKTFTKGGRYRGDINILLCGDPSTSKSQILQYVHKITPRGVYTSGKGSSAVGLTAYITRDVDTKQLVLESGALVLSDGGVCCIDEFDKMSDSTRSVLHEVMEQQTISIAKAGIITTLNARSSILASANPIGSRYNPNLPVTENIDLPPPLLSRFDLVYLVLDKVDEKNDRELAKHLTNLYLEDKPEHISQDDVLPVEFLTMYISYAKEHIHPIITEAAKTELVRAYVGMRKMGDDSRSDEKRITATTRQLESMIRLAEAHAKMKLKNVVELEDVQEAVRLIRSAIKDYATDPKTGKIDMNLVQTGKSVIQRKLQEDLSREIMNVLKDQASDSMSFNELIKQINEHSQDRVESSDIQEALSRLQQEDKVIVLGEGVRRSVRLNNRV | failed
MLKPMYYEFFFIFPKERELFESFLLDATHLALEESSLENLKAFDDKETIGFISQSNWHYFATHDPLKKDLKENLKEKPPHLKNFVILRSQKDLNNSLIPALEAFCLNLKQNLQSEFDFFYLSRNLASKDWLEAYKQAILPVQCTKFYIHPSWHQKPSHVVTNDCIMIDPALAFGSGHHESTSMCLELLSDIDLKRKNALDVGCGSGILSIALKKQGVSALVACDTDSLAVEETLKNFSLNQIPLLVQDKVIYGSTQKIEGRFDVIVANLVADVIKSLYSEFVRLCNHTLILSGILETHLNSVLQIYYNGFEVLEQRQRNEWVALKLLKKQPIN | failed
MMDVDHKTNLTLRKYFYTLKSMKFTSITYTLSAVLLLGFSIPLVFAQTPDSGLSADCQMPIPPNLNSVDHFLGMGHFQQDCKKDLSAAVAAFSQAIKLNPQAEEPYYHRANSYAAMGNYQAAVTDYTEVIRQNTGRLGFSTGAYWHRARAYEKLGEKQKAISDLTQLIGNNSSLNAEEYLFRANLYKELGNKESAIADYKIAEKLLQQYADGVFHTGMMDTRYEQMLDQVRNELSSMGVAVTVPKTTTGNILRTIAKTEVERALNLARLQSQHPTVKNFDAQLQDLYKQLANTQPQVESGVVKNLIANAAYEKIDDLKIERSQLLTKYTLDSPIIGVIDSQTSELESLIHRNKF | failed
LQTSRDLLSSVLSSSLDGIIVFSAIRSAGDTIADFECVLVNPQAEKLFESTAEDIVGMRLREDMPRQEEKGLFEAYREVVETGEPAEMEVHYDTDGQDVWFQVMAVKVENGVAVTYRDITDRKEAERQIREQAQLLDKA | failed
MTLDLFAPQPKTNLLPYDGDVEDYGCFISTAEAEQYFQYFLKHLAWRHDEARLYGKHFITPRQVAWYGDDHYRYAYSGIMRDSLPWDPQLLILKQQIEQTLAERFNSCLANLYQEGTQGMAWHSDGDMSLAKQTTIASLSLGATRKFCFRHLRTKEKIEMQLQSGQLIVMRGETQQHWQHAIMKSQKVIHPRINLTFRQFLLLEHHHHHH | failed
MRSTTSTLMLIKKTAIAVSLAVGSMVISGCDTNEVAKEISQPTIRPALTEIVSPSANAQLRFNGVVRSAQRADLAFRMSSRVISVLVDEGQQVKKGQLLAQLDPRDAQTALESARVEYKNSKAEYTRGKAIYEKSQAIAKSDLDTLTTRYQLAKNRLDEAQRQLEYTQLHAPFDGVIGKKMIDNHVQIQANSPVLTVHNVDDLEVLINIPDSVMLGDLKGSKALAQISALRNETFPLVLSTYGTQADPITQTYPVVLTFEDLRGFNVLPGMTVKVVPVYSDEQDQASLLITVPLTAVVPDNQGGQFVWVVTQENKVQKRIISAGTLVSNRIVINDGLQTGERIITAGASSLKEGMEVRPYTDTLSSQVEK | failed
MKLRLRHHETRETLKLELADADTLHDLRRRINPTVPSSVHLSLNRKDELITPSPEDTLRSLGLISGDLIYFSLEAGESSNWKLRDSETVASQSESNQTSVHDSIGFAEVDVVPDQAKSNPNTSVEDPEGDISGMEGPEPMDVEQLDMELAAAGSKRLSEPFFLKNILLEKSGDTSELTTLALSVHAVMLESGFVLLNHGSDKFNFSKELLTVSLRYTLPELIKSKDTNTIESVSVKFQNLGPVVVVYGTVGGSSGRVHMNLDKRRFVPVIDLVMDTSTSDEEGSSSIYREVFMFWRMVKDRLVIPLLIGICDKAGLEPPPCLMRLPTELKLKILELLPGVSIGNMACVCTEMRYLASDNDLWKQKCLEEVNNFVVTEAGDSVNWKARFATFWRQKQLAAASDTFWRQNQLGRRNISTGRSGIRFPRIIGDPPFTWFNGDRMHGSIGIHPGQSARGLGRRTWGQLFTPRCNLGGLN | failed
MHYTETGSPRLAILIDADNTFRFINVIDELLEEISKYGDVSIRRIYGDWTETKMQRWKEILPKYAIQPIQQYANTKGKNSTDSALIIDAMDLLYTAPLDGFCIVSSDSDFTRLATRLRESGKQVYGFGEQKTPDSLIAACNKFIYIEILSKEKLSDPPEPTPISTSETSASVESKPPAAPSTPLSPAALAPGIRKSSRELAMDTRLISLIRSAISALSDDDGYAHIGEIKKYMIKNFPAFDSRNYGYSKFSELIKATGLFDIDKDKQRIKDKRKK | failed
MPGTGLPIRGRRDPETIETRCLNNDQDSRLALIHAWLQTLPGSLGLRPETMEPASSDASFRRYFRLQAAAGTLIVMDAPPPHEDVRPFVHIDGLLREAGVNVPEIVAQDAGQGLLLLSDLGQDTFYQRIRAGISDAQLQSMYRDTLATLVRLQQASTAGLPAYDGARLAAELELFPEWYVGRHHGVTLDDKTAAALRQIFGLLAAEGDTGHRVLVHRDFHSPNLMVCDEPRYGPNPGVIDFQDALAGPLTYDLASLVTDARTTWEEPQQLDWAIRYWELARAAGLPVDADFAQFHRAYEWTGLQRNLRILGVFARLNHRDGKSIYLSHMPRVSGYVRQVAQRYGAFAPLLRLLDKLDDRQVQVGYTF | failed
